# Measurements published in patent US9481870B2, “Nucleic acid encoding a polypeptide having aminotransferase activity, vectors and host cells comprising the nucleic acid” (KANEKA CORPORATION, priority 2010, dated 2016).
# Test: Transamination activity assay (activity assay A), activity for (S)-1-phenethylamine
# Type: biochemical
# Details: (S)-1-phenethylamine 25 mM, sodium pyruvate 25 mM, pH 8.0, 30° C., 5 minutes
# Protocol: The above transamination activity can be determined by the following method. Specifically, first, a purified polypeptide is added to a substrate solution having the following composition so that the total volume is 1 mL. After 5 minutes of reaction at 30° C., 0.05 mL of 6N hydrochloric acid is added to stop the reaction. The reaction solution is then analyzed by HPLC under the following conditions and then the quantity of the thus generated acetophenone is determined (hereinafter, referred to as “activity assay A”).
# The transamination activity of purified TPM was examined under the following activity assay conditions. Specifically, purified TPM was added to a substrate solution with the composition given below to a total amount of 1 mL. After 5 minutes of reaction at 30° C., 0.05 mL of 6N hydrochloric acid was added to stop the reaction. HPLC analysis was conducted under the following conditions.
# [High Performance Liquid Chromatography (HPLC) Analysis Conditions] • Column: Wakosil-II 5C18 RS (Wako Pure Chemical Industries, Ltd.) • Eluent: 10 mM potassium phosphate buffer (pH5.3): acetonitrile=3:2 • Flow rate: 1 mL/minute • Detection: 241 nm • (1) Activity for (S)-1-phenethylamine: […]
molecule,measurement,value
"TPM: purified aminotransferase polypeptide from Pseudomonas sp. MV37, about 50,000 molecular weight, amino acid sequence SEQ ID NO: 1 (protein, listed as Pseudomonas sp.) MNHLEKMLELDRNHLIHPHLPKSEFSRTIFARGKGCKLWDTEGREYLDATGGLWLAQIGHGREEIAEVAARQMKQLEYFTCFWDFSNERAIELAEKLARLAPGDLEMSFFTSGGSEGDDAAIKTARYYHSQRGEPKRTWILSRNNAYHGLAYGGGTATGFPELRDGMGPGLPHVAYLTQPNAYRHYYFDGQNPTDFCVSELEKMIASIGAENIAAMIAEPIMGVGGMVPPPVDYWPRMSQVLKKNGILLIFDEVVSAFGRSGHWFAAEKYGVIPDIMVTAKGISSGYIPLGAVIMSRDVADTVREGHGYPLGYTYSGHPVACAVALENLRILEDEDLINRSNHMGTYIAEQLTALRDNPCVGEVRQAGMGIGIELVTDKESRQPLPDAALVIPDIIREETGVIVRISNATNLCMSPPLTMSREEADRAVEAVCSVLSRVKPDGKV",Transamination activity for (S)-1-phenethylamine,11.8 U/mg
